Measured values as given in patent publication US20250326818A1 (UNIVERSIT T BASEL, published 2025).
Changes are numbered by the printed parent chain.

Experiments:
Experiment in all cases: BLI (Octet), biotinylated CD123 ECD captured on streptavidin tips, hIL3 as analyte, level at 250 s normalised to loading
[1] = biological target: T1, CD123 ECD S59R (human, UniProt P26951 19-305)
T1 construct: Recombinant ECD
T1 sequence: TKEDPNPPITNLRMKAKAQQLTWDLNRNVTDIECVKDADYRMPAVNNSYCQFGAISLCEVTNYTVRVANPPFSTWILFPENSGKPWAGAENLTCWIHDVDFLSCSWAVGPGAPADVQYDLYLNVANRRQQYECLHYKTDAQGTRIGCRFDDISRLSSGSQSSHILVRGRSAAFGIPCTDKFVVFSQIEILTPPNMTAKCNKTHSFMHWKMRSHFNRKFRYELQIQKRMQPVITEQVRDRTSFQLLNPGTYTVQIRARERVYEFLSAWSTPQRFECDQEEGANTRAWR
Method: (§1) Binding of hIL3 (SinoBiological, PN: 11858-H08H) (analyte) to CD123 ECD wt. and variants (ligands) was performed using Streptavidin capture biosensor (SA) (Sartorius, PN: 18-5019). CD123 ECD wt. and variants were biotinylated using Biotinylation kit Type B (Abeam, PN: ab201796) following manufacturer instructions. Biotinylated CD123 ECD wt. and variants (ligands) were captured on SA tips for 1000 s to achieve a nm shift of 1.5 to 2 nm. Analyte hIL3 was titrated at 7 concentrations from 500 to 7.8 nM. Association to analyte was monitored for 300 s and dissociation for 120 s. Buffer only well was used as reference. No regeneration was performed, and a new set of tips was used for each biotinylated captured ligand. Data were analyzed using the Octet Data Analysis software HT 12.0. Due to the fast on/off nature of the interaction data were analyzed using Steady state analysis. Qualitative representation in FIG. 11 binding level were taken at 250 s association for all concentrations.

[2] = biological target: T2, CD123 ECD S59P (human, UniProt P26951 19-305)
T2 construct: Recombinant ECD
T2 sequence: T1 sequence with R41P
Method: as §1

[3] = biological target: T3, CD123 ECD R84T (human, UniProt P26951 19-305)
T3 construct: Recombinant ECD
T3 sequence: T1 sequence with R41S, R66T
Method: as §1

[4] = biological target: T4, CD123 ECD R84E (human, UniProt P26951 19-305)
T4 construct: Recombinant ECD
T4 sequence: T1 sequence with R41S, R66E
Method: as §1

[5] = biological target: T5, CD123 ECD S59F (human, UniProt P26951 19-305)
T5 construct: Recombinant ECD
T5 sequence: T1 sequence with R41F
Method: as §1

[6] = biological target: T6, CD123 ECD E51Q (human, UniProt P26951 19-305)
T6 construct: Recombinant ECD
T6 sequence: T1 sequence with E33Q, R41S
Method: as §1

Measured: binding result

B1: hIL3 (ligand, human, UniProt P08700 20-152, looked up)
chain: APMTQTTPLKTSWVNCSNMIDEIITHLKQPPLPLLDFNNLNGEDQDILMENNLRRPNLEAFNRAVKSLQNASAIESILKNLLPCLPLATAAPTRHPIHIKDGDWNEFRRKLTFYLKTLENAQAQQTTLSLAIF
notes: also called Interleukin-3
binds: all assays above
